Reference: PMC2756588

Tests used:
Assay in all cases: SPOT array
[1] = biological target: T1, Abp1, P15891; details: median of control spots 935
T1 sequence (P15891 535-592, looked up): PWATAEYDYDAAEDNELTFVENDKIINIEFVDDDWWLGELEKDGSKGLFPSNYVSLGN

[2] = biological target: T2, Bbc1, P47068; details: median of control spots 796
T2 sequence (P47068 1-78, looked up): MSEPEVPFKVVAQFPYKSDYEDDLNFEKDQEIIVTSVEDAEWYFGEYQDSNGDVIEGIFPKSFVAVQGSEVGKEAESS

[3] = biological target: Bem1-1, P29366; details: median of control spots 4282
[4] = biological target: Bem1-2, P29366; details: median of control spots 4347
[5] = biological target: T3, Boi1, P38041; details: median of control spots 1162
T3 sequence (P38041 1-86, looked up): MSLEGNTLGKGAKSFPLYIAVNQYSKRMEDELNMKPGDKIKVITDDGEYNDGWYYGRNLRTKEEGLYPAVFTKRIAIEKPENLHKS

[6] = biological target: T4, Boi2, P39969; details: median of control spots 1161
T4 sequence (P39969 32-116, looked up): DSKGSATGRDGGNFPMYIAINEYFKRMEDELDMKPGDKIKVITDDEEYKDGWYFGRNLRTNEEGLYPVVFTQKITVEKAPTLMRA

[7] = biological target: T5, Bud14, P27637; details: median of control spots 956
T5 sequence (P27637 247-328, looked up): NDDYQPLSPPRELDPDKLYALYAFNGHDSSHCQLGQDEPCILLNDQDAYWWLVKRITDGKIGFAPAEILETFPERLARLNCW

[8] = biological target: T6, Bzz1-1, P38822; details: median of control spots 4446
T6 sequence (P38822 478-572, looked up): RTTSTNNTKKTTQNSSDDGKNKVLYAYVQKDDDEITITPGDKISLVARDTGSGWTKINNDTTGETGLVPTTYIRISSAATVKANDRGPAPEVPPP

[9] = biological target: T7, Bzz1-2, P38822; details: median of control spots 4538
T7 sequence (P38822 568-633, looked up): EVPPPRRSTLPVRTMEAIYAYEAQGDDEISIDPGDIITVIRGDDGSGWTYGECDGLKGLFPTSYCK

[10] = biological target: T8, Cdc25, P04821; details: median of control spots 969
T8 sequence (P04821 50-136, looked up): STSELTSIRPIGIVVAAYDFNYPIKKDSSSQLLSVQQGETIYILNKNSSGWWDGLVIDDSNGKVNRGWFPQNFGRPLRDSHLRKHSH

[11] = biological target: T9, Cyk3, Q07533; details: median of control spots 1451
T9 sequence (Q07533 1-83, looked up): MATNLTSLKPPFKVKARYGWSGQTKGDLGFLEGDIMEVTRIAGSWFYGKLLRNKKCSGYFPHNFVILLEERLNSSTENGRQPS

[12] = biological target: T10, Fus1, P11710; details: median of control spots 1200
T10 sequence (P11710 432-512, looked up): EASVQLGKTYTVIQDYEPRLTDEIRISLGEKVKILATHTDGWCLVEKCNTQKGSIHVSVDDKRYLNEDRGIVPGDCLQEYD

[13] = biological target: GST; details: median of control spots 978
[14] = biological target: T11, Hof1, Q05080; details: median of control spots 4086
T11 sequence (Q05080 590-669, looked up): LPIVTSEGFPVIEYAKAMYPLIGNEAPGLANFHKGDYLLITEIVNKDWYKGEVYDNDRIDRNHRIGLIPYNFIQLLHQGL

[15] = biological target: T12, Hse1, P38753; details: median of control spots 1727
T12 sequence (P38753 208-285, looked up): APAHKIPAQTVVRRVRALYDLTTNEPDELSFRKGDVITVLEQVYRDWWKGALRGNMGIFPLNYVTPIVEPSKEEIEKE

[16] = biological target: T13, Lsb1, P53281; details: median of control spots 388
T13 sequence (P53281 45-122, looked up): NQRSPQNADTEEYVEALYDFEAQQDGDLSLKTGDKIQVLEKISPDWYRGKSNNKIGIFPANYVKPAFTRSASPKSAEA

[17] = biological target: T14, Lsb3, P43603; details: median of control spots 406
T14 sequence (P43603 385-451, looked up): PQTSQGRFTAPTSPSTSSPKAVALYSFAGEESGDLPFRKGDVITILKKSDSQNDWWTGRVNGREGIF

[18] = biological target: T15, Lsb4, P32793; details: median of control spots 397
T15 sequence (P32793 402-468, looked up): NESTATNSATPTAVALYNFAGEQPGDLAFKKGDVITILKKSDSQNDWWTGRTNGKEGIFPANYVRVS

[19] = biological target: Myo3, P36006; details: median of control spots 468
[20] = biological target: T16, Myo5, Q04439; details: median of control spots 471
T16 sequence (Q04439 1072-1160, looked up): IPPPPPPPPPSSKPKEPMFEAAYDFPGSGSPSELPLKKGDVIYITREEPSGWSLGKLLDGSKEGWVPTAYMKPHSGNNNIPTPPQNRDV

[21] = biological target: T17, Nbp2, Q12163; details: median of control spots 357
T17 sequence (Q12163 103-180, looked up): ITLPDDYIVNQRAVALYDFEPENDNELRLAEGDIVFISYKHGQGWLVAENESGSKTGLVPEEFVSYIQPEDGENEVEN

[22] = biological target: T18, Pex13, P80667; details: median of control spots 1341
T18 sequence (P80667 295-386, looked up): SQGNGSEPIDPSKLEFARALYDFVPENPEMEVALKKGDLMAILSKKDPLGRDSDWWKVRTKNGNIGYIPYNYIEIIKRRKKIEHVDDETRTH

[23] = biological target: T19, Pin3, Q06449; details: median of control spots 2171
T19 sequence (Q06449 53-122, looked up): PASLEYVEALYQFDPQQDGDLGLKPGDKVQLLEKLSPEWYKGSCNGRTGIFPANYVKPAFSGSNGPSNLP

[24] = biological target: Rvs167, P39743; details: median of control spots 2707
[25] = biological target: Sho1, P40073; details: median of control spots 1148
[26] = biological target: T20, Sla1-2, P32790; details: median of control spots 712
T20 sequence (P32790 60-140, looked up): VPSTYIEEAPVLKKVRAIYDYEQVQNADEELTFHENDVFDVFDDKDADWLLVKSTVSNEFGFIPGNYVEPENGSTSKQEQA

[27] = biological target: T21, Sla1-3, P32790; details: median of control spots 5475
T21 sequence (P32790 344-424, looked up): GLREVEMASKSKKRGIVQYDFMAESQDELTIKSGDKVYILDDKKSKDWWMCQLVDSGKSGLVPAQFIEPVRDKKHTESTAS

Sequence of Bem1-1, P29366 (P29366 55-141): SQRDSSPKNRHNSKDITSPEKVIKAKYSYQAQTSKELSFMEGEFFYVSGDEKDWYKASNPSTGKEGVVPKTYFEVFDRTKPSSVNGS
Sequence of Bem1-2, P29366 (P29366 139-227): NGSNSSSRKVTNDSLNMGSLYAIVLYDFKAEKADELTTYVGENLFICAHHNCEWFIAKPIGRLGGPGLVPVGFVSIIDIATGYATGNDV
Sequence of Rvs167, P39743 (P39743 419-482): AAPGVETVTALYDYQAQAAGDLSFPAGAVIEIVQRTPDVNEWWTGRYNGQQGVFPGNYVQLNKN
Sequence of Sho1, P40073 (P40073 287-367): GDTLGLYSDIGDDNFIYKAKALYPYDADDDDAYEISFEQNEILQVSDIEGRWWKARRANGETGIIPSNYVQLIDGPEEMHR

| Binder | SPOT intensity [1] | SPOT intensity [2] | SPOT intensity [3] | SPOT intensity [4] | SPOT intensity [5] | SPOT intensity [6] | SPOT intensity [7] | SPOT intensity [8] | SPOT intensity [9] | SPOT intensity [10] | SPOT intensity [11] | SPOT intensity [12] | SPOT intensity [13] | SPOT intensity [14] | SPOT intensity [15] | SPOT intensity [16] | SPOT intensity [17] | SPOT intensity [18] | SPOT intensity [19] | SPOT intensity [20] | other results |
| --- | --- | --- | --- | --- | --- | --- | --- | --- | --- | --- | --- | --- | --- | --- | --- | --- | --- | --- | --- | --- | --- |
| LPMNIQPDLPPRKIM | 141 | 2 | 0 | 0 | 0 | 0 | 0 | 0 | 0 | 0 | 0 | 0 | 0 | 0 | 3 | 285 | 941 | 1360 | 102 | 35 | SPOT intensity [21]: 6; SPOT intensity [22]: 35; SPOT intensity [23]: 175; SPOT intensity [24]: 2810; SPOT intensity [25]: 29; SPOT intensity [26]: 6; SPOT intensity [27]: 0 |
| FVLRYYILIPHEQWD | 0 | 15 | 2 | 13 | 6 | 1 | 1 | 1 | 2 | 59 | 0 | 42 | 0 | 5 | 2 | 2 | 0 | 0 | 0 | 0 | SPOT intensity [21]: 47; SPOT intensity [22]: 10; SPOT intensity [23]: 9; SPOT intensity [24]: 0; SPOT intensity [25]: 5; SPOT intensity [26]: 3; SPOT intensity [27]: 3 |

Now from value to binder, other results behind:

| SPOT intensity [1] | SPOT intensity [2] | SPOT intensity [3] | SPOT intensity [4] | SPOT intensity [5] | SPOT intensity [6] | SPOT intensity [7] | SPOT intensity [8] | SPOT intensity [9] | SPOT intensity [10] | SPOT intensity [11] | SPOT intensity [12] | SPOT intensity [13] | SPOT intensity [14] | SPOT intensity [15] | SPOT intensity [16] | SPOT intensity [17] | SPOT intensity [18] | SPOT intensity [19] | SPOT intensity [20] | Binder | other results |
| --- | --- | --- | --- | --- | --- | --- | --- | --- | --- | --- | --- | --- | --- | --- | --- | --- | --- | --- | --- | --- | --- |
| 4 | 13 | 1 | 2 | 0 | 1 | 0 | 1 | 0 | 1 | 0 | 0 | 0 | 63 | 1 | 290 | 771 | 1220 | 66 | 0 | APERAVPILPPRNNV | SPOT intensity [21]: 0; SPOT intensity [22]: 536; SPOT intensity [23]: 13; SPOT intensity [24]: 1340; SPOT intensity [25]: 7; SPOT intensity [26]: 0; SPOT intensity [27]: 0 |
| 0 | 5 | 0 | 0 | 0 | 2 | 0 | 0 | 0 | 0 | 0 | 1 | 0 | 1570 | 0 | 399 | 646 | 1310 | 0 | 0 | VQQDSLPKLPFRSWG | SPOT intensity [21]: 0; SPOT intensity [22]: 490; SPOT intensity [23]: 7; SPOT intensity [24]: 944; SPOT intensity [25]: 66; SPOT intensity [26]: 0; SPOT intensity [27]: 0 |
